This is an account of results in paper PMC9315428, “Distinctive in vitro ATP Hydrolysis Activity of AtVIPP1, a Chloroplastic ESCRT-III Superfamily Protein in Arabidopsis” (Frontiers in Plant Science, 2022).

Substrate in this data set: Nc1ncnc2c1ncn2[C@@H]1O[C@H](COP(=O)(O)OP(=O)(O)OP(=O)(O)O)[C@@H](O)[C@H]1O
In words: malachite green (PiColorLock) Pi release, Cornish-Bowden plot. Format: biochemical, Arabidopsis thaliana. The following applies: Mg2+ (2.5 mM MgCl2), pH 7.5, 37 °C, 0.5-4.0 mM ATP. From the text:
malachite green (PiColorLock) Pi release, Cornish-Bowden plot on AtVIPP1-His

B1: AtVIPP1-His (Arabidopsis thaliana) (protein)
chain: MNLFERFSRVVKSYANALISSFEDPEKILEQTVIEMNSDLTKMRQATAQVLASQKQLQNKYKAAQQSSDDWYKRAQLALAKGDEDLAREALKRRKSFADNATALKTQLDQQKGVVDNLVSNTRLLESKIQEAKAKKDTLLARARTAKTATKVQEMIGTVNTSGALSAFEKMEEKVMAMESEADALTQIGTDELEGKFQMLETSSVDDDLADLKKELSGSSKKGELPPGRSTVAASTRYPFKDSEIENELNELRRKANDF
notes: mature protein, N-terminal transit peptide removed, C-terminal His tag kept; E. coli BL21(DE3)pLysS; homo-oligomer (spherical particles 30-50 nm, some rods)
On to B1, for which the Km came out at 3.21 mM.
